According to the DeepSol protein solubility set:

Assay: soluble on expression in E. coli; label from the status in PepcDB or PDB records

Soluble on expression in E. coli, soluble:
MSLTDDRYTVISADCHAGADLLDYRPYLAKRHHDAFDAWAATYVNPYEDLLADTADRNWNSERRLAELAADGIVAEVVFPNTIPPFFPSASLMAPAPTAAEFEQRWAGLRAHNRWLADFCAAAPGRRAGVFQILLNDVEEAVKEISWAAGAGLRGGLLLPGTPPGSGLPELYSKAYDPIWAVCEELDVPVNHHAGSASPPLGDEPAARAVFMVETTWFSHRALWHLVFGGAFRRHPGLRLVLTEQGSGWIPGVLDMLDYYHGRLVAAGPKSATAEAKFGAGLDRAMGKGPSEVWRDNCFVGASFMRPHEVPLRDRIGLDKIMWGSDYPHDEGTYPYSREGLRIAYAGLPRTEIAAMAGGNAARVYGFDLSEGHHHHHH
MSLKAIIDNIKILEQNAINKGLDELILMENAGLNLAKLIKKEAKKIRIQRKIRKVKILFLLGGGNNASDGLVALRNLKHAKAYKIGFKENTLFKKQEQILQNYAFKFCKKEPNFKKFHIIIDCILGTGSNRCLDEKTSLIIQKVNQSKALKIACDIPTNLGFYPCFKADITFCMGALKEILLEDFAKEFVGRIKIANLGIRSKKFYPNSQAFLLEKKDLKTIDRKINANKGNFGHIYIVANASAGTLAGLGALNFGAGLVSLVAQKSFSPLLMLKEKIENNASAIALGMGLENLDFLKDEILQNTPLILDANCFLSEALLWYLNRKDVVITPHPKEFIKLYKMCFDENLDIETLQKNRFFYARKFSQNYDCVLVLKGANPIIVQKEKLFVVNLGNQALAKGGSGDVLSGMIAAHLGFGFSALEAAKNATLAHGLVAKKYKFNKNSFDALKLIKGLKCLEGHHHHHH
THMRCRVYYEDTDSEGVVYHANYLKYCERARSEFFFKQNVLPENEEGVFVIRSIKADFFTPASLGQVLEIRTQIKELRKVFVVLFQEIYCIQNASLEPMKPFKVFASEIKFGFVNRSTYSPIAIPKLFKELLNAI
MLLETTPIKANHLRSILDYIEQEQLTAEDRNHCMKLSKKKSIEKKTIHPTVNLNGSACFLQSPSDAIFCRHLSLQYALDSLRNGKGKVNLIKHYSSVESIQQHVPLVRDAEFRALLRHPPAGSRVIASKDFGFALDIFFCRMMANNVSHMSAILYIDNHTLSVRLRIKQSVYGQLNYVVSVYDPNDTNVAVRDTHRTARGFLSLDKFISSGPDAQTWADRYVRNCAIAILPLLPVGVPGAIFAGIASRMPFAPIHPSAMLLIMATGQSQQLITLFKQLPILPEKEIIEIITAQNSVGTPALEHHHHHH
MKNTTLYTYRDYFVIRGGKPLTGKVKISGAKNAALPIMFATILTEEPCTITNVPDLLDVRNTLLLLRELGAELEFLNNTVFINPSINSFITNQEIIRRMRASVLSLGPLLGRFGRAVVGLPGGCSIGARPIDQHLKFFKEAGADVEVREGYVYVNLKEKRRVHFKFDLVTVTGTENALLYLASVPEESILENIALEPEVMDLIEVLKKMGAHVKVEGRSAYVKGSENLKGFTHSVIPDRIEAGTFMVGAVLTDGEILLENARINHLRAVVEKLKLIGGEVVEENGNLRVFRKESLRACDIETQVYPGFPTDMQAQFMALLSVAKGKSRIKENIFEHRFHHAQELNRLGANITVRGNTAYVEGVERLYGSEVYSTDLRASASLVLAGLVAQGETVVRDVYHLDRGYEKLEEKLKKLGADIERVSEL

Soluble on expression in E. coli, not soluble:
MGSDKIHHHHHHMRDQAESLRRMVDGVMEQGRGQGKVIAVVSGKGGVGKSNVSLNFALTLSRQNQKVALIDLDLGMGNLDILMGLSPSYHIIDMIKRELTIWDIAEQGPEGITYIAGGSGLSELVELNERQMERFFQQLESLGAIYDYIILDMGAGATAESLRFILSAHEIFVVTTPEPTSITDAYAMVKYICKEPIENPEILLIVNRAESKREGEQTAANFKRVVSHFLKKDIHSLGYLPQDSHVVKAVKAQAPFVLHAPQAKASMAMGKLVHTYLGHRVDRGAPSYQSFMKKIRKWFR
GPGSMRARSLLRQQASAATLQPLRSVVAIGLRQEFDPHWPLPLPPPLPMNKQKHTLVLDIDETLIHTYAMGLHDDSKDHTRDPALQGVSLIDYNVLLRPHLKEFLEEVNQLFEVVFWTAGTASYCCAVLDALEQQVMQLPRSFYSYVELAKESRKMKSSTSHTNFYALSRTQTLEQQGYMKYLPMLGRKMSSVVMLDDNVRSFPLTPRNGIRIDAFDPDDHVLQRYIFALRRVQKEKPHEMEAALVQCLQQGQQE
SLTPDSTAGSLHIDCPTGLAGDMLLAALLDLGVPLEVIKAPLARLGLKDMVRLDVEETRSGGLRGRRLNVVGLEPDPPHRHWAEIRDRLQNSSLEPKLLQTVLAVFTALAEAEATVHAQTPESVHFHEVGAIDALVDVVGVCAAIHHLAPHRISCAPPPAGHGSVTTAHGLLPVPVPAVLELARAHQVPLRHDPSLPEGELTTPTGLALVSVLAERFTAPPLFTPSAIGIGLGHRRLDRPNLVRLCLGQGESATLDLEARWQPLVVQEAWIDDASAEDIAWLLDRLRQAGALDVACQSLLMKKGRAGVAVTALVSTEQAPQLRRTWFEAGPSIGLRERQQGRWLLPRRAGTLSTPWGVLTAKQVRRPDGHCTVKPEADALQRLSQASGCSVADLRAAAQAASFESEEPWTW
EIKQNEQRLNAIVQNLVSGVMLINVDKQVIMTNRTMYQILGETEITGKPFYEVIKSFALSQLIDATFETKTMQQKEIILYFPREMILDASVSPILAENGEITGIILLLHDIT
EAAPAPAGKGKILAVTACPTGIAHTFMAADALKEKAKELGVEIKVETNGSSGIKHKLTAQEIEDAPAIIVAADKQVEMERFKGKRVLQVPVTAGIRRPQELIEKAMNQDAPIYQGSGGGSA
MAVTTTSESAAEFKEKNVSPVKVEFINAPEKDPGLNVEWQIQGTGYNNEGSGSVIYVRMKNLNDVAIPADAFDDPVLTINGTEASRVEAGTVDLDLPLGPGATTNLQFAFGTGYGSLSDAKLVLGNCIFEGNLSNI
MVVISVIAIVLLLVYLDDKLGQFIFRNGRKTVVYPERRSDISLYINGRHLFSDYFAELGRARDHIHVLFYIIKNDETSAPFFQILKEKAAAGVKVRVLTDWVGSFGLPKALIRSLEESGVEFAYARKPRFPFFIYRLNRRNHRKITVIDGRVGYIGGFNIGREYNGKDANFGEWRDYHLKVNGEGVHDLQEQFLHDWEEATGRTVPDKHRYFPPLPAGAIRHQLVATNGAALEEQFIEVIRQAKKEIMIGSPYFIPSRPLFNELMQALRRGVRVTVLVPLKADHLFVKEAAYPYFYRLLKAGARIYRFYQGFYHAKTLVIDEEWCDVGTANFDRRSLFLNGEINCYVFDRGFTRLVKRAIERDLLRRRAADGRLLAKTFAS
MGHHHHHHSHMPLLVEGRRVRLPQSAGDLVRAHPPLEERARLLRGQSVQQVGPQGLLYVQQRELAVTSPKDGSISILGSDDATTCHIVVLRHTGNGATCLTHCDGTDTKAEVPLIMNSIKSFSDHAQCGRLEVHLVGGFSDDRQLSQKLTHQLLSEFDRQEDDIHLVTLCVTELNDREENENHFPVIYGIAVNIKTAEIYRASFQDRGPEEQLRAARTLAGGPMISIYDAETEQLRIGPYSWTPFPHVDFWLHQDDKQILENLSTSPLAEPPHFVEHIRSTLMFLKKHPSPAHTLFSGNKALLYKKNEDGLWEKISSPGS
MPQQTVEVKEVDVLIRGIWRKKKFTDIQKGQTFKIEENGRTKKYIARTDPYWDDMFETYIIDLLDKNKIRRNKLEHHHHHH
LKQQQQQQQQQQQQQQQQQQQQQQQQQQQQQQQQQQQQQQQQQQQQQQQQQQQQQQQQQQQQQQQQQQKSQNRTKQEQGQQSQNQQDAENKKEKQESEHKAKQQKAETEVEKQGEQKKGEPMQAQAQPEKSHQDDPEFRRLEAVESARDPSFLIRAQMQLQAQQKQRPQQSQKEW
MKKALPNTKVTVKLRRSNYKEEWYLIIESYPVYKRGSKRASRVVESINRTISTPIWDKSSIARILPDGTFNYKPKRDLNGIIQCRSTIDQEACIYADNVRKLRQHEYDSAILYTDKENEIAAQNERSEQDFIKYFNRIISTRHPNSSDSIIVNWRRVGELLKMYSQGQPIPFKAISVKLLEDIKMFLLRAPMGGNKKGTISQNTASTYFSILKAGLKQAFIDEYLTVDISAKVKGITNIEKPRVALTMNEVQMLVDTPCKDDVLKRAFLFSILTGLRHSDIQTLKWKQIQQTSKGTWQAVVIQQKTKRPDYKPVIQQALQLCGIRPDDDEALVFEGLTDASWISRPLKVWIEASGIKKHITF
